Biological target: HER2 (human epidermal growth factor receptor 2) (human) (UniProt P04626)
Assay: cell-based or functional assay

maximal cytolysis of SKOV3 tumor cells (xCELLigence, E:T 1:1): 90%
Substance: CasMab250 (H/L)-based CAR with medium spacer (IgG4 hinge & CH3 domain) and CD28-CD3ζ1XX intracellular signaling domains

— patent publication US20250222029A1
